From paper PMC7337497 (The Journal of Cell Biology, 2020)
Each block holds one binder with its values, some of them ahead of it.

Key:
[1] = target: T1, ATG12–ATG5-ATG16L1-GFP complex (E3-GFP) (human, UniProt O94817 1-140; Q9H1Y0 1-275; Q676U5-1 1-607, conjugated to a lysine residue in ATG5 (ATG12–ATG5 conjugate) | a lysine residue conjugated to ATG12); assay: microscopy-based bead protein-protein interaction assay; RFP-Trap beads coated with mCherry-WIPI2d, mCherry-Atg21 or mCherry as baits, 5 µM E3-GFP as prey; 25 mM Hepes pH 7.5, 150 mM NaCl, 1 mM DTT; at least 30 min at RT (22°C), confocal imaging; conditions: both partners purified
T1 construct: ATG12, human; synthetic gene codon optimised for Sf9; conjugated to ATG5 by coexpressed ATG7 and ATG10; ATG5, human; ATG16L1 isoform β, human; Dimer with two copies of each subunit by static light scattering; no TEV cleavage is described for this complex; also called GFP-tagged E3; E3 complex; source: Sf9, coexpressed from one poly-cistronic construct with ATG7 and ATG10, purified (StrepTactin, …)
T1 sequence (O94817 whole entry, chain 1 of 3, canonical isoform): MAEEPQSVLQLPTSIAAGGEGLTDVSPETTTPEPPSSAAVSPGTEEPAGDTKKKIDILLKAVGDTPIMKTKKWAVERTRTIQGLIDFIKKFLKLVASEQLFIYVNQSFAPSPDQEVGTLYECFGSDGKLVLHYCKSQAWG
T1 sequence (Q9H1Y0 whole entry, chain 2 of 3, canonical isoform): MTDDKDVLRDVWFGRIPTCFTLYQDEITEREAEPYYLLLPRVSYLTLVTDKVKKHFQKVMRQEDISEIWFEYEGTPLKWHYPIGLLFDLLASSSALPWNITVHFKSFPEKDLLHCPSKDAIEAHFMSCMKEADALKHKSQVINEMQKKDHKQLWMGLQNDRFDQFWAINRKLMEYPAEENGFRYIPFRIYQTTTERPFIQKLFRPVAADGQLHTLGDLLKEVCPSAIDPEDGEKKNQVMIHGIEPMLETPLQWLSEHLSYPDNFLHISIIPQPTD
T1 sequence (Q676U5 whole entry, chain 3 of 3, canonical isoform): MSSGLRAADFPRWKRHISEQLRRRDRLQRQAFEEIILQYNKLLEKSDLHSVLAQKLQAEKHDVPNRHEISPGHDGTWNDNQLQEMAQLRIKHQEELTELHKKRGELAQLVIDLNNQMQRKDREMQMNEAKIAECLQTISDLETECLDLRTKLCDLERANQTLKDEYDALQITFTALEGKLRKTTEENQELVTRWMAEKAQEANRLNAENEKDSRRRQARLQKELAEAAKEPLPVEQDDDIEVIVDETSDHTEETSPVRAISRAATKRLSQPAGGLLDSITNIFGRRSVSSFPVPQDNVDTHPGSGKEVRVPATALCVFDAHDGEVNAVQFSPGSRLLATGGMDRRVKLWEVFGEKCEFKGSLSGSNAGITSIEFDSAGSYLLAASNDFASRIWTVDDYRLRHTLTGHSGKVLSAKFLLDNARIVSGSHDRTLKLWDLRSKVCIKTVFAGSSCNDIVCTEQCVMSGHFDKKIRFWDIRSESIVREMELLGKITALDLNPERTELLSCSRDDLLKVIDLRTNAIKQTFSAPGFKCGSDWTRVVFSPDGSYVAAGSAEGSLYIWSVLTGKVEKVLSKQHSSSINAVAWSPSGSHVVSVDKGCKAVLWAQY

[2] = target: T1, ATG12–ATG5-ATG16L1-GFP complex (E3-GFP); assay: microscopy-based bead protein-protein interaction assay; 500 nM GST-mCherry-WIPI3 or GST-mCherry-WIPI4 and 100 nM E3-GFP with glutathione-coated polystyrene beads; 25 mM Hepes pH 7.5, 150 mM NaCl, 1 mM TCEP; 30 min RT, washed three times, confocal imaging; conditions: both partners purified

binding result [1]: binds
B1: mCherry-Atg21 (natural protein, S. cerevisiae, UniProt Q02887 1-496, looked up)
chain: MKVLQFNQDATCCVVAASSHQISIFNCDPFGKCFEIDTKNSKKKTSNNNGSASNSESRNNEESILITNGSRDRTDAEEEEDNEDNALVTGNILKEGEFVIEMLFSTSLIAIADRGQGLNKGKKLKIVNTKRKCTICEIVFPHEIVDVVMNRKRMCVLLESDQIFIYDISCMKPLETIDLWEDHYKRSQANSFSNASNTGTLEGDSANLNRVATNLLANATQKSVNGSNPSVRTRRNSLRSKIRPRMVLSNDDRSILCFTAYSSPKKNKPNSEALYDVVIYDTLNVTPVNYLNSVHKGNVACLAVSHDGKLLATASDKGTIIRVFHTGVDSDYMSSRSLFKEFRRGTRLCNLYQLAFDKSMTMIGCVGDTDTIHLFKLDDASNSLPGDNSSNGHWNEEEYILASNSNPSMGTPKEIPLSKPRIANYFSKKIKSSIPNQNLSRNFAYITVNESNRSCLGFPDEFPNQVYIASDDGTFSIYSIPSKPGECVLTKNNKFT
notes: also called yeast Atg21; source: E. coli Rosetta pLysS, purified (Ni-NTA, TEV, Superdex 200); not shown: 6xHis, N-terminal, cleaved; mCherry, N-terminal, kept

binding result [2]: binds
B2: GST-mCherry-WIPI3 (natural protein)
chain: not shown
notes: WIPI3, human; synthetic gene; Construct GST-TEV-mCherry-WIPI3; held on glutathione beads in the assay; also called GST-mCherry–tagged WIPI3; source: HEK293 GnTi, transfected, purified; not shown: GST, N-terminal, kept; mCherry, N-terminal, kept
